Laboratory results published in patent US20130019326.

Tests used:
[1] = tested on: FLAG-PPAR gamma, wild type
[2] = tested on: Rb protein (Cell Signaling Technology)
[3] = tested on: FLAG-PPAR gamma S273A
[4] = tested on: purified histone H1 (Millipore)

| Substance | in vitro CDK kinase assay, phosphorylation of the substrate [1] | in vitro CDK5 kinase assay, phosphorylation of the substrate [2] | in vitro CDK kinase assay, phosphorylation of the substrate [3] | in vitro CDK kinase assay, phosphorylation of the substrate [4] |
| --- | --- | --- | --- | --- |
| active cdk1/cdc2 kinase | Other members of the cdk protein family did not phosphorylate PPAR gamma |  |  |  |
| active cdk2/cyclin A kinase | Other members of the cdk protein family did not phosphorylate PPAR gamma |  |  |  |
| active cdk2/cyclin E kinase | Other members of the cdk protein family did not phosphorylate PPAR gamma |  |  |  |
| active cdk4/cyclin D1 kinase | Other members of the cdk protein family did not phosphorylate PPAR gamma |  |  |  |
| active cdk5/p35 kinase | The cdk5 site in murine PPAR gamma can be phosphorylated when incubated in vitro with cdk5 and its activating cofactor p35 | incubation with rosiglitazone does not inhibit the ability of cdk5 to phosphorylate the Rb protein | Mutation of serine 273 to alanine completely blocks phosphorylation of PPAR gamma | PPAR gamma is phosphorylated as efficiently under these conditions as is histone H1, a known substrate of the cdk5/p35 complex |
